# From publication PMC7864924, “Structures of active-state orexin receptor 2 rationalize peptide and small-molecule agonist recognition and receptor activation” (Nature Communications, 2021)
# Substitutions are numbered along the chain they refer to.
# B1: 4 (VHH)
# VHH: QVQLVESGGGSVQAGGSLRLSCAASGAINHIWYLGWFRQAPGKEREGVAALYTWTGWTYYADSVKGRFTVSLDNAKNTVYLQMNSLKPEDTALYYCAAAYFGFASPLRARRYEYWGQGTQVTVS
# B2: 5 (VHH)
# VHH: QVQLVESGGGSVQAGGSLRLSCAASGYISGIEYLGWFRQAPGKEREGVAALYTFEGTTYYADSVKGRFTVSLDNAKNTVYLQMNSLKPEDTALYYCAAAKYGEWGPLWFHEYWYWGQGTQVTVS
# B3: 2 (VHH)
# VHH: QVQLVESGGGLVQAGGSLRLSCAASGFPVYRAFMAWYRQAPGKEREWVAAIHSTGWWTHYADSVKGRFTISRDNAKNTVYLQMNSLKPEDTAVYYCHVWVGYTYIGQGTQVTVS
# B4: 8 (VHH)
# VHH: QVQLVESGGGLVQAGGSLRLSCAASGFPVKHREMYWYRQAPGKEREWVAAIVSKGNVTEYADSVKGRFTISRDNAKNTVYLQMNSLKPEDTAVYYCNVKDYGWWNAHYDYWGQGTQVTVS
# B5: 11 (VHH)
# VHH: B4 VHH with K30A, Y35F, V52T, N56S, V57Q, E59A, N105T, H107V
# B6: 14 (VHH)
# VHH: B4 VHH with E33H, V52A, K54N, N56H, V57R, W103F, W104Y, N105L, A106W
# B7: 9 (VHH)
# VHH: QVQLVESGGGLVQAGGSLRLSCAASGFPVKQHHMYWYRQAPGKEREWVAAIESGGKETRYADSVKGRFTISRDNAKNTVYLQMNSLKPEDTAVYYCNVKDWGWWWTNYDYWGQGTQVTVS
# B8: 16 (VHH)
# VHH: B7 VHH with K30A, Q31R, H32W, E52N, G54T, K56D, E57M, R59L, W104Y, T106V
# B9: 17 (VHH)
# VHH: B7 VHH with K30V, Q31G, H32W, E52N, G54S, E57K, R59L, W101A, W104F, T106Y
# B10: 12 (VHH)
# VHH: B7 VHH with K30Y, Q31T, H32A, H33Y, G54Q, K56Q, E57H, R59I, T106L
# B11: 10 (VHH)
# VHH: QVQLVESGGGLVQAGGSLRLSCAASGFPVETRHMYWYRQAPGKEREWVAAIQSEGYLTHYADSVKGRFTISRDNAKNTVYLQMNSLKPEDTAVYYCNVKDIGWLWVHYDYWGQGTQVTVS
# B12: 6 (VHH)
# VHH: QVQLVESGGGSVQAGGSLRLSCAASGNISAIGYLGWFRQAPGKEREGVAALVTWFGKTYYADSVKGRFTVSLDNAKNTVYLQMNSLKPEDTALYYCAAATYGNKNPLTDSYYSYWGQGTQVTVS
# B13: 1 (VHH)
# VHH: QVQLVESGGGSVQAGGSLRLSCAASGWIQTITYLGWFRQAPGKEREGVAALVTNEGNTYYADSVKGRFTVSLDNAKNTVYLQMNSLKPEDTALYYCAAASWGFVTPLWYYYTYWGQGTQVTVS
# B14: 3 (VHH)
# VHH: QVQLVESGGGLVQAGGSLRLSCAASGFPVNWKSMAWYRQAPGKEREWVAAISSFGWYTEYADSVKGRFTISRDNAKNTVYLQMNSLKPEDTAVYYCWVKVGATYYGQGTQVTVS
# Biological target: engineered OX2R carrying an additional amino-terminal Avi-tag, biotinylated (Homo sapiens, UniProt O43614, residues V261–A291 deleted, biotin on the Avi-tag (BirA biotin-protein ligase))
# Sequence (O43614 other isoform, or with tags, fused parts or gaps residues V261–A291 deleted | residues V261–A291 deleted): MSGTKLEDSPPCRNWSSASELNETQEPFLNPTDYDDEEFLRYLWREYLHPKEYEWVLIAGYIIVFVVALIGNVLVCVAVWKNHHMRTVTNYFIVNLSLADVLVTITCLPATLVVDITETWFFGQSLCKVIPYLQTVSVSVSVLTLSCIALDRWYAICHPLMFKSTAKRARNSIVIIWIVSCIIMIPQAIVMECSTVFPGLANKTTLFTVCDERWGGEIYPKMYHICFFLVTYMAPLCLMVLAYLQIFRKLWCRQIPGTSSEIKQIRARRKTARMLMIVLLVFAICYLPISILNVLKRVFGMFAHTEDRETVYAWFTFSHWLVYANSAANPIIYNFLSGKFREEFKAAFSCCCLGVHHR
row,binding result,Binder
1,binds,B1
2,binds,B2
3,binds,B3
4,binds,B4
5,binds,B5
6,binds,B6
7,binds,B7
8,binds,B8
9,binds,B9
10,binds,B10
11,binds,B11
12,binds,B12
13,binds,B13
14,binds,B14
